This note sets out measurements from US20050042664A1 (AstraZeneca / MedImmune, published 2005).

In this assay the target is T1, human EphA2 (human, UniProt P29317 24-534, limits assumed).
T1 construct: Target of the BIAcore analysis as named in the text
Nature of the assay: BIAcore; format not stated.

Where a chain is given by its changes, count along the chain named.

T1 sequence (P29317 24-534 limits assumed): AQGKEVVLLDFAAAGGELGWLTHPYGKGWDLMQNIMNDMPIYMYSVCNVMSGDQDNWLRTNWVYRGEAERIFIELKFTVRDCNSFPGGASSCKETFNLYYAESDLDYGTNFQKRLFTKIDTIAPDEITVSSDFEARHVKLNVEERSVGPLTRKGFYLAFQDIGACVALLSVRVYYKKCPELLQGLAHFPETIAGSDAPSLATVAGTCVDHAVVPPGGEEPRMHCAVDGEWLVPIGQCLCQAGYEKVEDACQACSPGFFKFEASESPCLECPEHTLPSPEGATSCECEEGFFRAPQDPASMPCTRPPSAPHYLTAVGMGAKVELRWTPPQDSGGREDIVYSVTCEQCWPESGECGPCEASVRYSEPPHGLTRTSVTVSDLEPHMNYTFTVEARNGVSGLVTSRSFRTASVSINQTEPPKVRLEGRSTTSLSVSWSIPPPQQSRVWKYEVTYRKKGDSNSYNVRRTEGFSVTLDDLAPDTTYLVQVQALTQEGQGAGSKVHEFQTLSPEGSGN

B1: Humanized version I of EP101 (hu IgG1) (antibody, V domains shown)
VH: QMQLVQSGPEVKKPGTSVKVSCKASGFTFTDYSMNWVRQARGQRLEWLGFIRNKANDYTTEYSASVKGRVTITRDMSTSTAYMELSSLRSEDTAVYYCARYPRYHAMDSWGQGTSVTVSS
VL: DIVMTQSPSSLSASVGDRVTIICRASQSISNNLHWYQQKPGKAPKLLIKYVFQSISGVPSRFSGSGSGTDFTFTISSLQPEDFATYYCQQSNSWPLTFGGGTKVEIK
The molecule B1 yielded a Kd of 0.7 nM, a koff of 3.76e-05 s⁻¹ and a kon of 53200 M⁻¹ s⁻¹.

B2: Humanized version II of EP101 (hu IgG1) (antibody, V domains shown)
VH: B1 VH with L48I
VL: B1 VL with V3Q, I22T
The molecule B2 displayed a Kd of 1.2 nM, an off-rate constant (koff) of 4.13e-05 s⁻¹ and a kon of 35600 M⁻¹ s⁻¹.

B3: Humanized version III of EP101 (hu IgG1) (antibody, V domains shown)
VH: B1 VH with L48I
VL: B1 VL
Molecule B3 had a Kd of 1.3 nM, a koff of 7.62e-05 s⁻¹ and a kon of 60000 M⁻¹ s⁻¹.

B4: Mouse version of EP101 (mouse IgG) (antibody, V domains shown)
VH: EVKLVESGGGLVQPGGSLSLSCAASGFTFTDYSMNWVRQPPGKALEWLGFIRNKANDYTTEYSASVKGRFTISRDNSQSILYLQMNALRAEDSATYYCVRYPRYHAMDSWGQGTSVTVSS
VL: DIVLTQSPATLSVTPGDSVNLSCRASQSISNNLHWYQQKSHESPRLLIKYVFQSISGIPSRFSGSGSGTDFTLSINSVETEDFGMYFCQQSNSWPLTFGAGTKLELK
notes: Mouse IgG; also called anti-human EphA2 monoclonal antibody EP101; parental murine antibody
In turn, B4 had a dissociation constant Kd of 0.3 nM, a koff of 0.000101 s⁻¹ and a kon of 330000 M⁻¹ s⁻¹.

B5: Chimaeric version of EP101 (hu IgG1) (antibody, V domains shown)
VH: B4 VH
VL: B4 VL
notes: Chimeric Fab cloned and expressed as a full length human IgG1; also called chimeric version of anti-EphA2 antibody
B5 had a Kd of 0.3 nM, a koff of 8.04e-05 s⁻¹ and a kon of 242000 M⁻¹ s⁻¹.
